Target: T1, 1st beta propeller of human LRP5 (human, UniProt O75197 32-338)
T1 sequence (looked up): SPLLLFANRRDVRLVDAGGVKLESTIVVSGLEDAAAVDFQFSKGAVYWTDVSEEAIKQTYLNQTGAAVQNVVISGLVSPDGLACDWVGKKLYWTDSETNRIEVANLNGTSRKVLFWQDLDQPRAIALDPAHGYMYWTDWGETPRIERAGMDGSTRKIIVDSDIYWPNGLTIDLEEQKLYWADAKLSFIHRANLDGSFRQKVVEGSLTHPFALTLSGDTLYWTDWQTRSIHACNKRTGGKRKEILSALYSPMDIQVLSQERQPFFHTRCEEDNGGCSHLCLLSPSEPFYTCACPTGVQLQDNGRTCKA
Experiment: SPR

B1: Recombinant insect cell-produced human sclerostin (natural protein, UniProt Q9BQB4 24-213, looked up)
chain: QGWQAFKNDATEIIPELGEYPEPPPELENNKTMNRAENGGRPPHHPFETKDVSEYSCRELHFTRYVTDGPCRSAKPVTELVCSGQCGPARLLPNAIGRGKWWRPSGPDFRCIPDRYRAQRVQLLCPGGEAPRARKVRLVASCKCKRLTRFHNQSELKDFGTEAARPQKGRKPRPRARSAKANQAELENAY
binding result: binds
